Experimental findings from a protein production outcome set (Wang et al. 2014) are described below.
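Also: failed if final PepcDB status was selected cloned or expressed and not failed if soluble or beyond.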

A short description of this data set: label from the status in PepcDB records.
With “MNTKALIGILMFLLLITWSSKGFAKTAEATVTVNIRNSPSTSSKVLGVFPKGFKAQVLSSTGGWVKISFDGVVGYVKSDYIKLTKDSSTSNAVKSSTNTRQVVSQMPMATVLKDNARVRSNMSTSSKILKTLKKGSKVYVLARERNGWIKVKTLDGTVGYMAYYLLKMSTSHTTKISSRGGYDREAQVAYNGSLADRILGFAKNLLGIRYRYGGSSPSTGFDCSGFVQYVFRNFGISLERTAADMAATDGVRISYNELRPGDLVFFDTDGGRNYINHVGIYLGGGKYIHASSARGCVTISDLTSKYGTSFMMAKRVIR”, the protein production entry is “failed”.

On to “MNTKRNRLLYATFTILVIILGLSSRKFAFALPALLNDYLGDALWALMIFTGFGFLFPKIATKKLAFISLIFCYGIEVSQLYHAEWIDSIRATTLGGLVLGYGFLWSDLVAYTIGVGIGFLFELILWKK”, for which the protein production result is “failed”. As to “MNTLECLAVAVALAMDAFAVAIATGIRLREVSPRQTFRLAFHFGLFQALMPVAGWTLGLTVRGYIEQWDHWLAFGLLLYIGVRMMREAFEETEENDDRCDPTRGLTLIMLAVATSIDALAVGLSLSVLGIDIVTPAIVIGVVCLLFTATGLHLGRMLSRAESLGRRAALAGGVVLIGIGLRILYEHGVFDTAATLARSVLG”, the protein production result is given as “failed”.

In the case of “MNTLEIAKEVFEKEAQAILDLATNLDENFNQAVNLMLNTKGRCIVSGMGKSGHIGAKIAATLASTGTPSFFIHPGEALHGDLGMLTSEDVLIAISNSGETEEILKIIPAIKKREIPLIVMCGKKNSTLVKQGDIFLNIAVEKEACPLQLAPMSSTTATLVMGDALAAALMKVRNFKPDDFALFHPGGSLGRKLLTKVKDLMVSSNLPIVHPDTEFNDLVDVMTSGKLGLCVVLENEKLVGIITDGDLRRALKASDKPRFDFKAKEIMSINPKVVDADAMASEAEGIMLKHKIKEIIVGKEEKVVGIIQLYAIGNV”, the protein production entry is “not failed”. The result for “MNTSYSQSTLRHNQVLIWLCVLSFFSVLNEMVLNVSLPDIANEFNKLPASANWVNTAFMLTFSIGTALYGKLSDQLGIKNLLLFGIMVNGLGSIIGFVGHSFFPILILARFIQGIGAAAFPALVMVVVARYIPKENRGKAFGLIGSLVAMGEGVGPAIGGMVAHYIHWSYLLLIPTATIITVPFLIKLLKKEERIRGHIDMAGIILMSAGIVFFMLFTTSYRFSFLIISILAFFIFVQHIRKAQDPFVDPELGKNVFFVIGTLCGGLIFGTVAGFVSMVPYMMKDVHHLSTAAIGSGIIFPGTMSVIIFGYIGGLLVDRKGSLYVLTIGSALLSSGFLIAAFFIDAAPWIMTIIVIFVFGGLSFTKTVISTVVSSSLKEKEAGAGMSLLNFTSFLSEGTGIAIVGGLLSIGFLDHRLLPIDVDHSTYLYSNMLILFAGIIVICWLVILNVYKRSRRHG” reads “not failed”. Consider “MNTTVEKQQIITSNTEQWKMYSKLEGKEYQIHISKPKQPAPDSGYPVIYVLDGNAFFQTFHEAVKIQSVRAEKTGVSPAIIVGVGYPIEGAFSGEERCYDFTPSVISKDAPLKPDGKPWPKTGGAHNFFTFIEEELKPQIEKNFEIDKGKQTLFGHSLGGLFALHILFTNLNAFQNYFISSPSIWWNNKSVLEKEENLIIELNNAKFETGVFLTVGSLEREHMVVGANELSERLLQVNHDKLKFKFYEAEGENHASVVPTSLSKGLRFISYV”, for which the protein production entry is recorded as “not failed”.

As for “MNVDILKQRAKAFDYVFDAIVVTDLQGFIIDWNKGSETLYGYSKEQAIGQPVNMLHVPGDTEHITSEVISAVENQGKWTGEIRMLHKDGHIGWIESMCVPIYGENYQMVGALGINRDITKRKKELEHHHHHH”, the protein production result was “not failed”. Regarding “MNVRHISYFNQWHGALVTNMLAGVLLALALLPGAIAFSFIAGVSPTIGMLSTGLMMLVISLTGNRTLMVSAPSSGVSLVVAPLMSSHGMPAVILATLIMGIIQILMGICRINKLLDYIPTGVVIGFMNALGVLLFTSQLKNILNISNATYVIAVASFLIIWLAQRYIRFMPAPLIAIIILTICAWWLKPDIVYVHHLASLHIHVPMLSFPDAMYDMHIVGISSMYGVTMAIVAVVQTTLTARMMDAVTATKSDKNKETIGQGVANTIVALFGGYGGSALVGQSRFNATMGATSRVSTLITGAFLLISLFVFGDIIGQIPMAVLATVLITISLNTFDRRTISFIKVSPIKHGAIVVLTMLIILSTNNLAAGVVLVSLLYYLIQGFNKRKGRDI”, the protein production result is given as “failed”.

Turning to “MNVRKFPFAMRAGVAGMLALAALLAGCGSLSGSEMSRRTDADIEVARQRQADEKAELTSPGTYLSLIRRMQEQGMYYASLAHIDAYVQRFGRTPDVLLLRADALRETDQPAAAEADYRAVVEATSALGAGTQGALLNANAWRGLGITAGRQGRFAEAVRRLQLAARGNPTDASTESDLGYALMRAGEVEQARVPLMQAAQLDAANPKIAGNLAIWLDVNDRKEAAAALTAHARLSEAARKAIDEDAARVRSAWRDRRVARDTAPQPVQRAVVANPALMPAAAAPRSSAPLAFQRGRLLDNLEAAQ”, the protein production entry is “failed”. The result for “MNVSNGDLIVEKIVANRKYHALKRQRNVLSWLLTLLMLVVYFGFIGLIAFNKAFLAVPLASGVTTRGIPIAIGVMLFAIIVTAVYVFFSNIVYDKLSRNILEDACK” reads “failed”. As to “MNVVIVRYGEIGTKSRQTRSWFEKILMNNIREALVTEEVPYKEIFSRHGRIIVKTNSPKEAANVLVRVFGIVSISPAMEVEASLEKINRTALLMFRKKAKEVGKERPKFRVTARRITKEFPLDSLEIQAKVGEYILNNENCEVDLKNYDIEIGIEIMQGKAYIYTEKIKGWGGLPIGTEGRMIGILHDELSALAIFLMMKRGVEVIPVYIGKDDKNLEKVRSLWNLLKRYSYGSKGFLVVAESFDRVLKLIRDFGVKGVIKGLRPNDLNSEVSEITEDFKMFPVPVYYPLIALPEEYIKSVKERLGL”, the protein production result was “not failed”. The result for “MNVVRSSAYTGVATLAKLLAALVVVKLVAVYAGPQGVGRLGQFLNLMSVLAVLAGGGISAGIVKYVAQYRDDAPALARLLSAALWYAFCAACAMALLAMAFSGAIAERLLGDASYRPLMCVLAIAQLGIALLNYMLAVINGFMDVRRLAFVQVSGAVLSVALVAWLSGRAQLHGALLALVLSQVLWLLAAVPALRRSSYFQPAMWRMRFDAEMTRQLAAFSVMTLTSTLVPQLVAILVRDHLALQFGWEQVGYWQAVSRVSDAYLLFFTTAINVYYLPKLASLRGAVALGQELRGAYRYVMPAVIVMALGVYVCRDWVTLLLFDAQFAAAAPLYGPQLLGDVVKIAAFVLSYVMLAKAMTRLLVISECIFAASYLALVYLFTAQFGLIGAMYAFAANYVLYLLFNIVVVRRYLRRTA” reads “failed”; that for “MNVVVTGGRGSSGRWIVDRLVGPHDVTVLDRRLPDDEGHPAVEYQALDLTDAGGVFDTLTAIDPDAVVHWAAIPVAGNHPGVDLFQNNTLAAHNVLSAAGRVGADVVQGSSDGAYGFFFAEETPVPDELPITEKHARRPEDDYGLSKVVTEEIGKTIARRDGISVASIRPSWIQIPGEYPCRSEDYVDDLAAGAGNYWSYVDVRDVADLVEAALTADVAGHETFNCVGPDNALGRPLVELMRDHYGRVPDDCTVEGDAAAYSTAKATERLGWEPTRSWREAADVDVDVPTV”, “failed”.

In the case of “MNWPNMPPGDRRWLWIGLTLPLCLLNGWVLLQILDYFQSPLRIFIIANLVAFILGYPVRWLQRYPRLKLPYAVALVLLTTAIILAVIGLLVIPKLVDQIRTVLQLLPHLNALGDRHLESLDNLSNQWEIPTNFRAWGRELSNEFPNQIRSITNQLINLLIWTAGSLVEAGFIFIMTVYLLLRGQTFWDGIFRWLPIDWRHKVRQRLRHSFQNYYIGQATVAALLGVSLIISLSIFQVPLALLFGMFVGFMAFFPFGGGTSIVLISIIASFQSIWLGIKVLAIATVVDQVVENGLAPKLLGRVTGVHPVWILLSLMIGAKVAGLLGILVAIPIASFIRDMLNDFI”, the protein production entry is given as “failed”. The same measure for “MNWVAPIKDQETLKNFGETLKQVDYKYYIMFELGVGTGLQLQDILAFKNKDVTGKKEIEVTIGTRNMKNVFTVPEELQQIINEYTKGKDPEAYLILGHSSSNKPVSREQAYRVLRSAGHKIGLNSIGAQTMRKTYAWNYYKETGDIYHLQKLFNHASPSITYRFIGEKPNIEVFLKKMTPQENERSRYLLYLNDNGKKKLNKIIDILTGIRDNFDSPANNDAFYGKVDCLLQELEALMENYENTK”: “failed”; for “MNYFIVEVSEQEVKREKEKARELRRSQWWKNRIARGICHYCGEIFPPEELTMDHLVPVVRGGKSTRGNVVPACKECNNRKKYLLPVEWEEYLDSLESEPSDGEGLEHHHHHH”: “not failed”.
